According to US20120058906A1 (published 2012):

Legend:
[1] = target: T1, rHuman IGF-1 sR (IGF-1 sR), CF (R&D Systems Cat#391-GR) (human, UniProt P08069 31-932); assay: MSD ECL multi-spot plate, antigen immobilized; Fab 8 nM; blank spot 489
T1 construct: Purchased soluble receptor; also called insulin-like growth factor-1 soluble receptor; IGF-R1

[2] = target: T2, Recombinant Human DLL4 (R&D Systems Cat#1506-D4/CF) (human, UniProt Q9NR61 27-524); assay: as above
T2 construct: Purchased recombinant protein; also called delta-like protein 4

[3] = target: T3, rHuman CD44/Fc Chimera, CF (R&D Systems Cat#3660-CD) (human, UniProt P16070 21-220); assay: as above
T3 construct: Purchased Fc chimera; not shown: Fc portion of the purchased chimera

[4] = target: T4, rHuman Notch-1/Fc Chimera, CF (R&D Systems Cat#3647-TK) (human, UniProt P46531 19-526); assay: as above
T4 construct: Purchased Fc chimera; not shown: Fc portion of the purchased chimera

[5] = target: T5, rHuman HGF R/c-MET/Fc Chimera, CF (R&D Systems Cat#358-MT/CF) (human, UniProt P08581 25-932); assay: as above
T5 construct: Purchased Fc chimera; also called HGF R/Fc; not shown: Fc portion of the purchased chimera

[6] = target: T6, rHuman Erythropoietin R/Fc Chimera, CF (R&D Systems Cat#963-ER) (human, UniProt P19235 25-250); assay: as above
T6 construct: Purchased Fc chimera; also called EPO R/Fc; Epo R; not shown: Fc portion of the purchased chimera
T6 sequence: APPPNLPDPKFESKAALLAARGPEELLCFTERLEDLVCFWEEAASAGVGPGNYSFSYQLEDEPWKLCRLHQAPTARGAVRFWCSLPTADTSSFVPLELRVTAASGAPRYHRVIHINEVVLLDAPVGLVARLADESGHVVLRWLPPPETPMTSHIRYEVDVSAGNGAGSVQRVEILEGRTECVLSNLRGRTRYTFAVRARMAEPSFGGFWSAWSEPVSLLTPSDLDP

[7] = target: T7, rHuman EGF R/Fc Chimera, CF (R&D Systems Cat#344-ER) (human, UniProt P00533 25-645); assay: as above
T7 construct: Purchased Fc chimera; not shown: Fc portion of the purchased chimera

[8] = target: T8, rHuman P-Cadherin/Fc Chimera, CF (R&D Systems Cat#861-PC) (human, UniProt P22223 108-654); assay: as above
T8 construct: Purchased Fc chimera; not shown: Fc portion of the purchased chimera

[9] = target: T9, rHuman CD44/Fc Chimera, CF (R&D Systems Cat#3660-CD) (human, UniProt P16070 21-220); assay: MSD ECL titration, Fab 0.1 nM, blank 201
T9 construct: Bought Fc chimera; Fc part of the bought chimera not given

[10] = target: T10, rHuman HGF R/c-MET/Fc Chimera, CF (R&D Systems Cat#358-MT/CF) (human, UniProt P08581 25-932); assay: MSD ECL titration, Fab 0.1 nM, blank 201
T10 construct: Bought Fc chimera; also called HGF R/Fc; Fc part of the bought chimera not given

[11] = target: T11, rHuman EGF R/Fc Chimera, CF (R&D Systems Cat#344-ER) (human, UniProt P00533 25-645); assay: MSD ECL titration, Fab 0.1 nM, blank 201
T11 construct: Bought Fc chimera; Fc part of the bought chimera not given

[12] = target: T12, rHuman IGF-1 sR (insulin-like growth factor-1 soluble receptor), CF (R&D Systems Cat#391-GR) (human, UniProt P08069 31-932); assay: MSD ECL titration, Fab 0.1 nM, blank 201
T12 construct: Bought soluble receptor; also called IGF-R1

[13] = target: T13, rHuman P-Cadherin/Fc Chimera, CF (R&D Systems Cat#861-PC) (human, UniProt P22223 108-654); assay: MSD ECL titration, Fab 0.1 nM, blank 201
T13 construct: Bought Fc chimera; Fc part of the bought chimera not given

[14] = target: T14, Recombinant Human DLL4 (R&D Systems Cat#1506-D4/CF) (human, UniProt Q9NR61 27-524); assay: MSD ECL titration, Fab 0.1 nM, blank 201
T14 construct: Bought recombinant protein; also called rHuman DLL4; delta-like protein 4

[15] = target: T15, rHuman Notch-1/Fc Chimera, CF (R&D Systems Cat#3647-TK) (human, UniProt P46531 19-526); assay: MSD ECL titration, Fab 0.1 nM, blank 201
T15 construct: Bought Fc chimera; Fc part of the bought chimera not given

[16] = target: T16, rHuman Erythropoietin R/Fc Chimera, CF (R&D Systems Cat#963-ER) (human, UniProt P19235 25-250); assay: MSD ECL titration, Fab 0.1 nM, blank 201
T16 construct: Bought Fc chimera; also called EPO R/Fc; EPOR; Fc part of the bought chimera not given
T16 sequence: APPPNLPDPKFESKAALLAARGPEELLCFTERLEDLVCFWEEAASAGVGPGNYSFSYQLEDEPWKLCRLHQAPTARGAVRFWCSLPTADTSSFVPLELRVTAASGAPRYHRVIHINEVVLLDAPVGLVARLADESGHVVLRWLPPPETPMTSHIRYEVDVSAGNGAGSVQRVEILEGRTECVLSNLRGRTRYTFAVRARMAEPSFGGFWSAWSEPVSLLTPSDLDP

[17] = target: T17, rHuman ErbB2/Fc Chimera, CF (R&D Systems Cat#1129-ER) (human, UniProt P04626 23-652); assay: MSD ECL titration, Fab 0.1 nM, blank 201
T17 construct: Bought Fc chimera; also called HER2/neu; Fc part of the bought chimera not given

[18] = target: T18, rHuman Erythropoietin R/Fc Chimera, CF (R&D Systems Cat#963-ER) (human, UniProt P19235 25-250); assay: ECL (MSD Multi-Spot) binding assay, antigen spotted on plate; Fab 15 nM; blank spot 261
T18 construct: Bought Fc chimera; also called EPO R/Fc; Epo R; Fc part of the bought chimera not given
T18 sequence: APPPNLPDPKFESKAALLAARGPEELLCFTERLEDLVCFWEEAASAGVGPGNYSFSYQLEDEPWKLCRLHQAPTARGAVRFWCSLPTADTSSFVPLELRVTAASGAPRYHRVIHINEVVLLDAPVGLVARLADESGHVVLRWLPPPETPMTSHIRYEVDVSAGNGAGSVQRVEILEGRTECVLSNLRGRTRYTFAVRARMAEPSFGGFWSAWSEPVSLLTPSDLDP

[19] = target: T19, rHuman Notch-1/Fc Chimera, CF (R&D Systems Cat#3647-TK) (human, UniProt P46531 19-526); assay: as above
T19 construct: Bought Fc chimera; Fc part of the bought chimera not given

[20] = target: T20, Recombinant Human DLL4 (R&D Systems Cat#1506-D4/CF) (human, UniProt Q9NR61 27-524); assay: as above
T20 construct: Bought recombinant protein; also called delta-like protein 4; rHuman DLL4
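Note: blank spot per well as comparator with Hit at signal to blank ratio of 4 or more.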

B1: Fab VH5-51_IGHD5-18*01>3_IGHJ4*01_G100K & V3-4_IGLJ1*01 (Fab, V domains shown)
VH: EVQLVQSGAEVKKPGESLKISCKGSGYSFTSYWIGWVRQMPGKGLEWMGIIYPGDSDTRYSPSFQGQVTISADKSISTAYLQWSSLKASDTAMYYCARRKYSYGYDYFDYWGQGTLVTVSS
VL: QTVVTQEPSFSVSPGGTVTLTCGLSSGSVSTSYYPSWYQQTPGQAPRTLIYSTNTRSSGVPDRFSGSILGNKAALTITGAQADDESDYYCVLYMGSGISYVFGTGTKVTVL
notes: It was expressed as a Fab: CH1 with tags from Plasmid A and lambda CL from Plasmid E; also called Fab No. 22
Question: B1 was tested. Which ECL signal [1] did it give?
Answer: 1200 ECL signal

Question: What about the ECL signal [2] of the same binder?
Answer: 11400 ECL signal

Question: What about the ECL signal [3] of the same binder?
Answer: 853 ECL signal

Question: What about the ECL signal [4] of the same binder?
Answer: 831 ECL signal

Question: And the ECL signal [5]?
Answer: 1260 ECL signal

Question: What about the ECL signal [6] of the same binder?
Answer: 881 ECL signal

Question: And the ECL signal [7]?
Answer: 1030 ECL signal

Question: What about the ECL signal [8] of the same binder?
Answer: 788 ECL signal

B2: Fab VH1-46_IGHD6-6*01_IGHJ1*01 & L6_IGKJ1*01 (Fab, V domains shown)
VH: QVQLVQSGAEVKKPGASVKVSCKASGYTFTSYYMHWVRQAPGQGLEWMGIINPSGGSTSYAQKFQGRVTMTRDTSTSTVYMELSSLRSEDTAVYYCAREEYSSSSAEYFQHWGQGTLVTVSS
VL: not shown
notes: Expressed in E. coli as Fab: heavy chain with CH1 plus Flag and His tags from Plasmid A, kappa light chain constant region from Plasmid C; also called Fab No. 1
Question: B2 was tested. Which ECL signal [9] did it give?
Answer: 323

Question: What about the ECL signal [10] of the same binder?
Answer: 286

Question: And the ECL signal [11]?
Answer: 311

Question: What about the ECL signal [12] of the same binder?
Answer: 241

Question: What about the ECL signal [13] of the same binder?
Answer: 235

Question: And the ECL signal [14]?
Answer: 317

Question: What about the ECL signal [15] of the same binder?
Answer: 378

Question: And the ECL signal [16]?
Answer: 373

Question: What about the ECL signal [17] of the same binder?
Answer: 306

B3: Fab VH6-1_IGHD3-3*01_IGHJ4*01 & V4-3_IGLJ4*01 (Fab, V domains shown)
VH: QVQLQQSGPGLVKPSQTLSLTCAISGDSVSSNSAAWNWIRQSPSRGLEWLGRTYYRSKWYNDYAVSVKSRITINPDTSKNQFSLQLNSVTPEDTAVYYCAREYYDFWSGYYTDYFDYWGQGTLVTVSS
VL: QPVLTQPTSLSASPGASARLTCTLRSGINLGSYRIFWYQQKPESPPRYLLSYYSDSSKHQGSGVPSRFSGSKDASSNAGILVISGLQSEDEADYYCMIWHSSASFVFGGGTQLIIL
notes: Tested as a Fab made in E. coli; also called IGHV6-1*01
Question: For B3, which ECL signal [18] is on record?
Answer: 397

Question: And the ECL signal [19]?
Answer: 508

Question: And the ECL signal [20]?
Answer: 690
